{"source": "paper PMC7717906", "about": "(eLife, 2020)", "biological_target": "the molecule itself", "assay": "SEC"}
{"protein": "His-MoOsm1 (enzyme) MAEFVRAQIFGTTFEITSRYSDLQPVGMGAFGLVCSARDQLTNQNVAIKKIMKPFSTPVLAKRTYRELKLLKHLKHENVISLSDIFISPLEDIYFVTELLGTDLHRLLTSRPLEKQFIQYFLYQIMRGLKYVHSAGVVHRDLKPSNILVNENCDLKICDFGLARIQDPQMTGYVSTRYYRAPEIMLTWQKYDVEVDIWSAGCIFAEMLEGKPLFPGKDHVNQFSIITELLGTPPDDVINTIASENTLRFVKSLPKRERQPLKNKFKNADPSAIDLLERMLVFDPKKRITATEALAHEYLTPYHDPTDEPIAEEKFDWSFNDADLPVDTWKIMMYSEILDYHNAEAGMQQMDDQFTGQ", "values": [{"measurement": "stoichiometry N", "value": 2}]}
